In the nanobody polyreactivity screen of Harvey et al. (2022):

Test: yeast display, Sf9 membrane polyspecificity reagent, FACS + sequencing; frameworks hold sequencing errors
Method in brief: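 A nanobody's polyreactivity label depends on the gate it was sorted from. Yeast display cells were stained with 10% biotinylated, detergent-solubilized Sf9 membrane reagent for 1 hour at 4 °C, enriched on streptavidin microbeads and sorted by FACS. The low and high (top ~1%) gates were set on anti-HA fluorescence for expression and streptavidin fluorescence for reagent binding.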

Sequence	polyreactivity (PSR sort gate)
QVQLVESGGGLVQAGGSLRLSCAASGSTLDRYVMGWYRQATGKERELVAAISRNGGSTYYADSVKGRFTISRDNAKNTVYLQMNSLIPEDTAVYNCARYAGFPYTQGDYWGQGTQVTVSS	high polyreactivity
QVQLVESGGGLVQAGGSLRLSCAASGSTLDVYAMGWYRQAPGKERELVAAITVRATSTYYADSVKGRFTISRDNAKNTVYLQMNSQKPEDTAVYYCDARYEFFYKAFDVDSWGQGTQVTVSS	low polyreactivity
QVQLVESGGGLVQAGGSLRLSCAASGSTLDYNAMGWYRQAPGKEREFVADITWSGGSTHYADSVKGRFTISRDNSKNTVYLQMNSLKPEDTAVYYCATAYYYHGGYYYPYDDYWGQGTQVTVSS	low polyreactivity
QVQLVESGGGLVQAGGSLRLSCAASGSTLEFNAMGWYRQAPGKERELVAVINRSDGSTYYADSVKGRFTISRDNAKNTVYLQMNSLKPEDTADYYCAADRHQVSVISTEDYWGQGTQVTVSS	low polyreactivity
QVQLVESGGGLVQAGGSLRLSCAASGSTLEYYAMGWYRQAPGKERELVAAISSGGSTNYADSVKGRFTISRDNAKNTVYLQMNSLKTEDTAVYYCAAERYYRFVYTCYDYWGQGTQVTVSS	high polyreactivity
QVQLVESGGGLVQAGGSLRLSCAASGSTLFAYAMGWYRQAPGTERELVAAITSGASTNYADSVKGRFTISRDNAKNTVYLQMNSLKPEDTAVYYCAKDVSGTNPDYDYWGQGTQVTVSS	low polyreactivity
QVQLVESGGGLVQAGGSLRLSCAASGSTLFSYAMGWYRQAPRKEREFVAAISRRGGSTYYADSVKGRFTISRDNAKNTVYLQMNSLKPEVTAVYYCNTVRVHGFPIDRIYVYWGQGTQVTVSS	high polyreactivity
QVQLVESGGGLVQAGGSLRLSCAASGSTLFYAMGWYRQAPGKERELHAAISWSGGSTRYADSVKGRFTISRDNAKNTVYLQMNIMKPEDTAVYYCNTYTKHTGYYWKYDYWGQGTQVTVSS	low polyreactivity
QVQLVESGGGLVQAGGSLRLSCAASGSTLGGNAMGWYRRAPGKERELVAAITSSAGSTYYADSVKGRFTISRDNAKNTVYLQMNSLKPEDTAVYYCAADYSRDEYDYWGQGTQVTVSS	low polyreactivity
QVQLVESGGGLVQAGGSLRLSCAASGSTLGGYAMGWYRQAPGKERELVAAISGSRGSTYYADSVKGRFTISRDNAKNTVYLQMTSLKPEDTAVYYCAAGSYWVQYQYDYWGQGTQVTVSS	low polyreactivity
QVQLVESGGGLVQAGGSLRLSCAASGSTLGRYALGWYRQAPGKERELVASITWSDDSTYYADSVKGRFTISRDNAKNTVYLQMNSLKPEDTAVYYCAAAGNLYTYRFYYWGQGTQVTVSS	low polyreactivity
QVQLVESGGGLVQAGGSLRLSCAASGSTLGRYAMGWYRQAPGKERELVASITWSDDSTYYADSVKGRFTISRDNAKNTVYLQMNSLKPEDTAVYYCNAPPGTFQWQGHSDYWGQGTQVTVSS	low polyreactivity
QVQLVESGGGLVQAGGSLRLSCAASGSTLGRYSMGWYRQAPGKERELVAAISWRGGSTYYADSVKGRFTISRDNAKNTVYLQMNSLKPEDTPVYYCAATYRFSEYYYWGQGTQVTVSS	high polyreactivity
QVQLVESGGGLVQAGGSLRLSCAASGSTLGVNAMGWYRQAPGKEREFVAAITGRGGNTYYADSVKGRFTISRDNAKNTVYLQMNSLTPEDTAVYYCAARDKYTRYQSILDYYYWGQGTQVTVSS	high polyreactivity
QVQLVESGGGLVQAGGSLRLSCAASGSTLHEYAMGWSIQAPGKERELVAAISRGGGNTNYADSVKGRFTISRDNAKNTVYLQMNSLKPEDTAVYYCNARHGKIIFYLERYDYWGQGTQVTVSS	low polyreactivity
QVQLVESGGGLVQAGGSLRLSCAASGSTLHEYAMGWYRQAPGKARELVAAISRGGGNTNYADSVKGRFTISRDNAKNTVYLQMNSLIPEDTAVYYCNARHGKIIFYLERYDYWGQGTQVTVSS	low polyreactivity
QVQLVESGGGLVQAGGSLRLSCAASGSTLKYNALGWYRQAPGKERELVAAISTSGGNTYYADSVKGRFTISRDYAKNTVYLQMNTLKPEDTAVYYCAKVLGFYYYDYYTPFARGYWGQGTQVTVSS	low polyreactivity
QVQLVESGGGLVQAGGSLRLSCAASGSTLLYYVMGWYRQAPGKERELVAAITGTGGRTYYADSVKGRFTISRDNAKNTVYLQMNSLKPEDTAVYYCAADGKFEYDYWGQGTQVTVSS	low polyreactivity
QVQLVESGGGLVQAGGSLRLSCAASGSTLNRNAMGWYRQAPGKERELVAAIRVSGGSTYYADSVKGRFTISRDNAKNTVYLQMNSLKPEDTAVYYCATRYVRARWYGYWGQGTQVTVSS	high polyreactivity
QVQLVESGGGLVQAGGSLRLSCAASGSTLNRNVMGWYRQAPGKERELVAVITYGVGSTYYADSVKGRFTISRDNAKNTVYLQMNSLKPEDTAVYYCNRPTYLHSTSYSYDYWGQGTQVTVSS	low polyreactivity
QVQLVESGGGLVQAGGSLRLSCAASGSTLNYYAMGWYRQAPGKERELVAAIRSGGNTNYADSVKGRFTISRDNAKNTVYLQMNSLKPEDTAVYYCAKDESYFYDRVPLDYWGQGTQVTVSS	low polyreactivity
QVQLVESGGGLVQAGGSLRLSCAASGSTLPGFTMGWYRHAPGKERELVAAISWSGGSTSYADSVKGRFTISRDNAKNTVYLQMNSLKPEDTAVYYCDVDRFWRPVRSGSTYDYWGQGTQVTVSS	low polyreactivity

Sequence	polyreactivity (PSR sort gate)
QVQLVESGGGLVQAGGSLRLSCAASGSTLPNNAMGWYRQAPGKERELVAAISSSGGSTYYADSVKGRFTISRDNAKNTVYLQMNSLKPEDTAVYYCAAVYSRGTYNYWGQGTQVTVSS	high polyreactivity
QVQLVESGGGLVQAGGSLRLSCAASGSTLQINGMGWYRQAPGKERELVAAISIGGDTNYADSVKGRFTISRDNAMNTVSLQMNSLKPEDTAVYYCAASGAYDEAYGEAFYYWGQGTQVIVSS	low polyreactivity
QVQLVESGGGLVQAGGSLRLSCAASGSTLQVNAMGWYRQATGKERELVDTISFSGGSTYYADSVKGRFTISRDNAKNTVYLQMNSLKPEDTAVYYCNADSFVSWYNQFWYQATYDYWGQGTQVTVSS	low polyreactivity
QVQLVESGGGLVQAGGSLRLSCAASGSTLRGNAMGRYRQAPGKVREFVAAISSSGGRTYYADSVKGRFTISRDNAKNTVNLQMTSLNPEDTAVYYCAAARYQYYFSSVPRAYYYWGQGTQVTVSS	high polyreactivity
QVQLVESGGGLVQAGGSLRLSCAASGSTLRGYAMGWYRQAPGKERELVAAITYISDSTYYADSVKGRFTISRDNAKNTVYLQMNSLKPEDTAVYYCNAYYDGDWRYTSQETGDHWGQGTQVTVSS	low polyreactivity
QVQLVESGGGLVQAGGSLRLSCAASGSTLRRNAMGWSRQAPGKERELVAAITGSRGSTFYADSVKGRFTISRDNAKNTVYLQMNSLKPEDTAVYYCAVYKWSTRVSQYRYDYWGQGTQVTVSS	high polyreactivity
QVQLVESGGGLVQAGGSLRLSCAASGSTLRRNAMGWYRQAPGKERELVAAISGTGGSTYYADSVKGRFTISRDNAKNTVYLQMYSLKPEDTAVYYCAATGWYYDYDYWGQGTQVTVSS	low polyreactivity
QVQLVESGGGLVQAGGSLRLSCAASGSTLRRNAMGWYRQAPGKERELVAAITGSRGSTFYADSVKGRFTISRDNAKNTVYLQMNSLKPEDTAVYYCAVYKWSTRVSQYRYDYWGQGTQVTVSS	high polyreactivity
QVQLVESGGGLVQAGGSLRLSCAASGSTLRSKAMGWYRQAQGKERELVASISSGGSTSYADSVKGRFTISRDNAKNTVYLQMNSLKPEDTAVYYCAADNSVGSYDYWGQGTQVTVSS	low polyreactivity
QVQLVESGGGLVQAGGSLRLSCAASGSTLRTYAMVWYRQAPGKERELVAAISFSTTSTYYADSVKGRFTISRDNATNTVYLQMNSLKPEDTAVYYCAATYQILTTSAHDSWGQGTQVTVSS	high polyreactivity
QVQLVESGGGLVQAGGSLRLSCAASGSTLSDYAMGWYRQAPGKERELVAAISTSGGRTYYADSVKGRFTISRDNAKNTVYLQMNSLKPEDTAVYYCAVDHYSSYEYWGQGTQVSVSS	low polyreactivity
QVQLVESGGGLVQAGGSLRLSCAASGSTLSGNAMGWYRQAPGKERELVAAISWNGGATYYADSVKGRFTISRDNAKNTVYLQMNSQKPEDTAVYYCAAEYIVTYEYWYFGYDYWGQGTQVTVSS	low polyreactivity
QVQLVESGGGLVQAGGSLRLSCAASGSTLSHYAMGWYRQAPGKERELVAAINSNGGSTYYADSVKGRFTISRDNAKNTVYLQMNSLKPEDTAVYYCKTYFRYFSFYGRPFDYWGQGTQVTVSS	high polyreactivity
QVQLVESGGGLVQAGGSLRLSCAASGSTLSQNAMGWYRQAPGKEREFVADISGSGDSTYYADSVKGRFTISRDNAKNTVYLQMNSLKPEDTAVYYCAARSLVQDHAYGYNYWGQGTQVTVSS	low polyreactivity
QVQLVESGGGLVQAGGSLRLSCAASGSTLSRYTMGWYRPEPGKERELVAAIRSSGGSTYYADSVKGRFTISRDNAKNTVYLQMNSLKPEDTAVYYCARTQQRTTERVHWIRYYYWGQGTQVTVSS	low polyreactivity
QVQLVESGGGLVQAGGSLRLSCAASGSTLSSYAMGWYRPAPGTERELGAVISGGGRTYYADSVKGRFTISRDNAKNTVYLQMNSLKPEDTAVYYCAAVTFSLGYRYYYWGQGTQVTVSS	high polyreactivity
QVQLVESGGGLVQAGGSLRLSCAASGSTLSYNAMGWYRPATGKERELVAAISWSDGGTYYADSVKGRFTISRDNAKNTVYLQMNSLKPEDTAVYYCNAESQWSYYFIYDYWGQGTQVTVSS	high polyreactivity
QVQLVESGGGLVQAGGSLRLSCAASGSTLSYYAMGWYRPAPGKDRELVAAISFSGGITYYADSVKGRFTISRDNAKNTVYLQMNSLKPEDTAVYYCNAEYQVYRAYVIWYDYWGQGTQVTVSS	high polyreactivity
QVQLVESGGGLVQAGGSLRLSCAASGSTLTDYAMGWYRQAPGKERELVAAITSDGDSTNYADSVKGRFTISRDNAKNTVYLQMNSLKPEDTAVYYCAAQGKYHYYVPAYEYWGQGTQVTVSS	low polyreactivity
QVQLVESGGGLVQAGGSLRLSCAASGSTLTLYAMGWYRQARGKERELVAAIDWTGGSTYYADSVKGRFTISRDNAKNTVYLQMNSLKPEDTAVYYCAAHSFTEGYWYEYWGQGTQVTVSS	high polyreactivity
QVQLVESGGGLVQAGGSLRLSCAASGSTLTRNDIGWYRQAPGKERELVAAITFSGSDTYYADSVKGRFTISRDNAKNTVYLQMNILKPEDTAVYYCAAEYGGYSIYLFIGRYYWGQGTQVTVSS	low polyreactivity
